Experimental findings from article PMC2615213, “Serum Activity of Platelet-Activating Factor Acetylhydrolase Is a Potential Clinical Marker for Leptospirosis Pulmonary Hemorrhage” (PLoS ONE, 2009) are described below.

The term Km denotes the concentration of substrate that gives half-maximal velocity. For orientation: kcat means the number of substrate molecules converted per active site and unit of time at saturation. By kcat/Km is commonly meant the turnover number divided by the Michaelis constant.

This data set concerns CCCCCCCCCCCCCC(=O)OC[C@H](COP(=O)([O-])OCC[N+](C)(C)C)OC(=O)CCC(=O)Oc1ccc([N+](=O)[O-])cc1. Briefly: purified protein. The settings on record: chromogenic substrate; mean of duplicate experiments.

Consider “rL-PAF-AH (recombinant His-tag-L-PAF-AH, LA2144) (Leptospira interrogans serovar Lai str. 56601)”, for which the Km is 610 µM, the kcat turned out to be 6.61 s⁻¹ and the kcat/Km worked out at 10800 M⁻¹ s⁻¹.
